In general, Kd refers to the free concentration of one partner at which half of the binding sites on the other are occupied at equilibrium, for simple one-to-one binding. A higher Kd goes with a looser complex. Usually koff stands for a measure of how fast the partners let go of each other. A low value points to a long-lived complex. As a reminder, the kon is the rate constant with which the complex forms. A higher kon goes with fast association. As usually defined, the EC50 is the concentration needed to bring the measured effect to its halfway point. Low values mean a more potent agent, high ones a less potent agent.

The results in this text go back to patent publication US20190127438A1 (AFFIRIS, published 2019).

In assay [1] the target is T1, human IgE (NBS-00911-0-100) (human, UniProt P01854-1 1-428).
T1 construct: Bought reagent; also called soluble IgE
Kind of assay: SPR (Biacore 2000, 25 °C), adsorber captured by anti-Tag mAB, IgE 0.5-64 nM as analyte, 1:1 model. On the procedure:
The surface of a Streptavidine (SA) sensor chip (GE Healthcare Biacore, Cat. Nr. BR-1000-32) was prepared by three injections with 20 μl of 50 mM NaOH following a 200 μl injection of the biotinylated anti-Tag-mAB (Abcam ab10241) diluted to 2 μg/ml in HBS-EP (0.01 M HEPES, 0.15 M NaCl, 3 mM EDTA, 0.005% (v/v) surfactant P20 (pH 7.4) (GE Healthcare Cat. Nr. BR-1001-88) resulting in an immobilization level of ˜2500 RU for capturing on flow cell 4. Free SA-binding sites were saturated by two consecutive 100 μl injections of 1 mM D-Biotin (Sigma #47868). Flow cell 3 was saturated with free D-Biotin and served as reference cell. The capturing level of FceRIa variants and of the ScFv12 required to obtain a maximal response of 100 RU of IgE binding was calculated to be 75 RU and 80 RU, respectively. Therefore FceRIa, A43-FceRIa and scFv12 were diluted in HBS-EP and injected into flow cell 3 and 4 (30 μl/min) until the immobilization level of 90 RU was reached. After a stabilization time of 10 min with injection of running buffer, the final capturing level of 75 and 80 RU respectively were obtained. Finally the individual interactions of FceRIa, A43-FceRIa and scFv12 with IgE (NBS-00911-0-100) diluted in HBS-EP running buffer at 2-fold increasing concentrations (starting concentration, 0.5 nM; maximum concentration, 64 nM) were assessed with an IgE-association phase of 3 min at a flow rate of 30 μl/min. The dissociation phase was investigated by injection of HBS-EP for 30 min at a flow rate of 30 μl/min. The sensor chip surface was regenerated by injecting 15 μl of 10 mM Glycine-HCl pH 1.8 at the same. The dissociation constant (KD-Value), on-rate (ka) and off-rate (kd) were calculated with BIAevaluation 4.1 (GE Healthcare Biacore) using a 1:1 interaction model. All measurements were performed on a Biacore 2000 device at 25° C.
On the technique in general: Surface plasmon resonance follows binding to a sensor surface in real time, without labels.

Assay [2] deals with T1, human IgE (NBS-00911-0-100). Kind of assay: capture ELISA: adsorber on a capturing antibody, 1 µg/ml IgE, anti IgE-HRPO. On the procedure:
Protease resistant A43-FceRIa adsorber has similar affinity, avidity and specificity to IgE when compared to wild type FceRIa or prior art single chain antibody scFv12 (WO 2012/140214 A1) when comparing IgE binding by capture ELISA. Plates were coated with capturing antibody, after blocking HEK cell-purified recombinant protein derived from ScFv12 and FceRIa transfected cells, coated protein was incubated for 1 hour at RT. 1 μg/ml IgE (NBS-00911-0-100), trapped for 1 h/RT and detected for IgE binding using 1 μg/ml anti IgE-HRPO mAB (Novus Biologicals NBP1-74934) for 1 hour at RT.

T1 sequence (P01854 other isoform, or with tags, fused parts or gaps): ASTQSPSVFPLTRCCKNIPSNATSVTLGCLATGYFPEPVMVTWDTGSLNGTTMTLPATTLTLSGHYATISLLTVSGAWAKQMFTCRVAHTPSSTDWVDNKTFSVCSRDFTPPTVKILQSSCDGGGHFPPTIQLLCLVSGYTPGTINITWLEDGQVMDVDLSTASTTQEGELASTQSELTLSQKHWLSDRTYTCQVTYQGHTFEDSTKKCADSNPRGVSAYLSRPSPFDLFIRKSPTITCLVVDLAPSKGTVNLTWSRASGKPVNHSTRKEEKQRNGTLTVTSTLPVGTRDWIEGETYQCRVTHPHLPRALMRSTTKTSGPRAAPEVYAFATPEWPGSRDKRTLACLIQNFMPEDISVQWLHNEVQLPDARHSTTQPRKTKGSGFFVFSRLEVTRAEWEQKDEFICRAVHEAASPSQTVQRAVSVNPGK

B1: protease resistant A43-FceRIa (K43 to A43 variant of recombinant human FceRIa) (receptor)
chain (part 1 of 2): PDGVLAVPQKPKVSLNPPWNRIFAGENVTLTCNGNNFFEVSSTKWFHNGSLSEETNSSLNIVNAKFEDSGEYKCQHQQVNESEPVYLEVFSDWLLLQASAEVVMEGQPLFLRCHGWRNWDVYKVIYYKDGEALKYWYENHNISITNATVEDSGTYYCTGKVWQLDYESEPLNITVIKAPREKYWLQ
chain (part 2 of 2): HHHHHH
notes: also called A43 mutant; protease-resistant variant A43-FceRIa; not shown: spacer
In assay [1], B1 displayed an equilibrium dissociation constant (Kd) of 0.379 nM, a koff of 0.000492 s⁻¹ and a kon of 1.3e+06 M⁻¹ s⁻¹. Besides, the EC50 in assay [2] is 0.0344 µg/mL.

B2: recombinant wild type FceRIa (extracellular region of the alpha chain of the human high-affinity IgE receptor, spacer, 6His) (receptor)
chain: PDGVLAVPQKPKVSLNPPWNRIFKGENVTLTCNGNNFFEVSSTKWFHNGSLSEETNSSLNIVNAKFEDSGEYKCQHQQVNESEPVYLEVFSDWLLLQASAEVVMEGQPLFLRCHGWRNWDVYKVIYYKDGEALKYWYENHNISITNATVEDSGTYYCTGKVWQLDYESEPLNITVIKAPREKYWLQHHHHHH
notes: Peptide K (VPQKPK...) begins at V26, so the secreted protein may begin at residue 26; also called WT-FceRIa; wt-FceRIa; not shown: spacer between FceRIa and 6His
Regarding B2, in assay [1], the affinity, expressed as Kd, was 0.473 nM; the koff is 0.00052 s⁻¹; the kon is 1.1e+06 M⁻¹ s⁻¹. In assay [2], this molecule registered an EC50 of 0.0245 µg/mL.
